B1: Matrix metalloproteinase-28 (Homo sapiens), Q9H239 (parent)
chain: MVARVGLLLRALQLLLWGHLDAQPAERGGQELRKEAEAFLEKYGYLNEQVPKAPTSTRFSDAIRAFQWVSQLPVSGVLDRATLRQMTRPRCGVTDTNSYAAWAERISDLFARHRTKMRRKKRFAKQGNKWYKQHLSYRLVNWPEHLPEPAVRGAVRAAFQLWSNVSALEFWEAPATGPADIRLTFFQGDHNDGLGNAFDGPGGALAHAFLPRRGEAHFDQDERWSLSRRRGRNLFVVLAHEIGHTLGLTHSPAPRALMAPYYKRLGRDALLSWDDVLAVQSLYGKPLGGSVAVQLPGKLFTDFETWDSYSPQGRRPETQGPKYCHSSFDAITVDRQQQLYIFKGSHFWEVAADGNVSEPRPLQERWVGLPPNIEAAAVSLNDGDFYFFKGGRCWRFRGPKPVWGLPQLCRAGGLPRHPDAALFFPPLRRLILFKGARYYVLARGGLQVEPYYPRSLQDWGGIPEEVSGALPRPDGSIIFFRDDRYWRLDQAKLQATTSGRWATELPWMGCWHANSGSALF

Variants of: B1
Conditions: with furin_human FURIN

effect of a mutation on the interaction	Variant
with no effect	Y43A;G44A
disrupting interaction strength	Y45A;L46A
with no effect	R119A;K120A
with no effect	E241A
